# Reference: article doi:10.1101/2020.10.20.346890 (bioRxiv, 2020)
# Where a chain is given by its changes, count along the chain named. Several values for one entry are separate records, joined by “and”; a condition that tells them apart may be missing. Equal entries are not always repeated.
# B1: HU-B wild type (natural protein)
# chain: MNKSQLIDKIAAGADISKAAAGRALDAIIASVTESLKEGDDVALVGFGTFAVKERAARTGRNPQTGKEITIAAAKVPSFRAGKALKDAVN
# B2: LysrHU-B (lysine-replaced HU-B) (other)
# chain: B1 chain with K83A, K86A
# B3: LoodHU-B (loop-deleted HU-B) (other)
# chain: MNKSQLIDKIAAGADISKAAAGRALDAIIASVTESLKEGDDVALVGFGTFASGGGGSGGGGSKVPSFRAGKALKDAVN
# B4: LoodLysrHU-B (loop-deleted and lysine-replaced HU-B) (other)
# chain: B3 chain with K71A, K74A
# Biological target: the molecule itself
# Experiment: cross-linking
row,Protein,stoichiometry N
1,B1,4 and 3 and 6
2,B2,2 and 4
3,B3,4
4,B4,2 and 4

# Biological target: the molecule itself
# Experiment: SEC
row,Protein,stoichiometry N
1,B1,2
2,B3,2
